The test system of the assay is Oxidatively competent cells. The assay can be described thus: Antimycin A-induced cell death in oxidatively competent cells, SYTOX assay after 4 hours. It is filed as cell-based, rat-human hybrid (GCL1). The note with it: lactoferrin alone at 100 μg/ml. From the text:
The GCL1 (WiF-B) liver cell line is a hybrid originating from the fusion of rat hepatoma cells (fao) and human fibroblasts (W138). Cassio et al. (1991) J. Cell Biol. 115:1397-1408; Shanks et al. (1994) J. Cell Science 107:813-825. […] Ihrke et al. 1993, J. Cell Biol. 123:1761-1775. At greater than 80% confluence, more than 80% of the cells participate in forming one or more phaselucent, spherical structures that are located between cells, termed bile canicular-like spaces. In contrast to the majority of cell lines maintained in culture which are fermentative, GCL1 cells, when at their maximal density and polarity, are highly oxidative (i.e., they can be readily killed by inhibitors of oxidative phosphorylation or electron transport uncouplers). […] These cells are amenable to use in high throughput screening (HTS) technology.
Energetically competent cells are seeded onto 96-well plates at 1×10^3/well or 2.5×10^3/well as passage 15. The cells are grown in DMEM with 10% FBS and 1.5 g/L sodium bicarbonate for 24 or 48 hours to reach 85% confluence. The cells are washed once with HBSS and then 100 μl of HBSS containing different concentration of AA (Sigma Chemical Co., Cat # A 8674) is added to the cells. AA is dissolved in DMSO to make a stock solution of 50 mM, then diluted with HBSS to 100, 50, 25, 12.5, 6.25, 3.125, and 1.56 μM for dose-response curves. […]

B1: lactoferrin: Bovine lactoferrin, iron-binding glycoprotein of milk (Sigma cat. # L9507 or DMV International Nutritionals) (protein, UniProt P24627 20-708, looked up)
Lactotransferrin: APRKNVRWCTISQPEWFKCRRWQWRMKKLGAPSITCVRRAFALECIRAIAEKKADAVTLDGGMVFEAGRDPYKLRPVAAEIYGTKESPQTHYYAVAVVKKGSNFQLDQLQGRKSCHTGLGRSAGWIIPMGILRPYLSWTESLEPLQGAVAKFFSASCVPCIDRQAYPNLCQLCKGEGENQCACSSREPYFGYSGAFKCLQDGAGDVAFVKETTVFENLPEKADRDQYELLCLNNSRAPVDAFKECHLAQVPSHAVVARSVDGKEDLIWKLLSKAQEKFGKNKSRSFQLFGSPPGQRDLLFKDSALGFLRIPSKVDSALYLGSRYLTTLKNLRETAEEVKARYTRVVWCAVGPEEQKKCQQWSQQSGQNVTCATASTTDDCIVLVLKGEADALNLDGGYIYTAGKCGLVPVLAENRKSSKHSSLDCVLRPTEGYLAVAVVKKANEGLTWNSLKDKKSCHTAVDRTAGWNIPMGLIVNQTGSCAFDEFFSQSCAPGADPKSRLCALCAGDDQGLDKCVPNSKEKYYGYTGAFRCLAEDVGDVAFVKNDTVWENTNGESTADWAKNLNREDFRLLCLDGTRKPVTEAQSCHLAVAPNHAVVSRSDRAAHVKQVLLHQQALFGKNGKNCPDKFCLFKSETKNLLFNDNTECLAKLGGRPTYEEYLGTEYVTAIANLKKCSTSPLLEACAFLTR
For the molecule B1, the cell death amounted to 85.9% (Example 8, experiment with (+/−)-alpha tocopherol) and 96% (Example 8, experiment with alpha-tocopherol Type V).

(Values after patent US6426362B1, “Formulations of tocopherols and methods of making and using them” (Galileo Laboratories, Inc., priority 1999, dated 2002).)
